Laboratory results as given in article PMC7822592, “The half-life of the bone-derived hormone osteocalcin is regulated through O-glycosylation in mice, but not in humans” (eLife, 2020).
No end group written: not given here.

Key:
[1] = In vivo half-life assay, serum OCN after intraperitoneal injection in Bglap-/- mice; set-up: species or system mouse; details: for serum OCN / in vivo half-life / % OCN from initial (relative to maximum at 30 min) / % OCN from initial, mean used for 1/2 life: 40 ng/g i.p.; for serum OCN: ELISA; for in vivo half-life: estimated from declining phase after maximum at 30 min, serum ELISA; for % OCN from initial (relative to maximum at 30 min) / % OCN from initial, mean used for 1/2 life: serum, fasted Bglap-/- mice
Experimental: For in vivo half-life assay, Bglap-/- male mice were injected intraperitoneally with 40 or 80 ng/g of body weight of mouse O-glycosylated ucOCN or non-glycosylated ucOCN, serum OCN level was analyzed at indicated time points using total mouse OCN ELISA. In all ex vivo and in vivo studies, mouse or human proteins were prepared in saline solution (0.9% NaCl) containing BSA (35 mg/ml) as a carrier.

[2] = test system: INS-1 832/3 cells; assay: OCN stability in INS-1 832/3 cell culture media; type: in vitro ADME, rat; details: 8 hours with INS-1 cells at 37°C, ELISA
Experimental: (§1) The INS-1 832/3 rat insulinoma cell line (Millipore-Sigma) was cultured in RPMI-1640 with 11.1 mM D-glucose, supplemented with 2 mM L-glutamine, 1 mM sodium pyruvate, 10 mM HEPES, 0.05 mM β-mercaptoethanol and 10% FBS ([Hohmeier et al., 2000]). On day 1, cells were plated at 3 × 10^5 cells per well in 12-well plates and on day 5, cells were washed with PBS and incubated with culture media containing 5 mM D-glucose. Twenty-four hours later, cells were washed with PBS and incubated for 4 hr in culture media containing 1% FBS, 5 mM D-glucose and 0.1% BSA. OCN was added for 8 hr before supernatants and cells were harvested. ucOCN and O-gly ucOCN concentration were measured in supernatants by ELISA and cells were lyzed and RNA extracted as described in the material and methods section. Gene expression was analyzed using rat specific primers for Ins1 and Gapdh.

[3] = test system: INS-1 832/3 cells; assay: Ins1 gene expression in INS-1 832/3 cells treated with ucOCN; type: cell-based, rat; details: 8 hr; for Ins1 gene expression (Fold change relative to vehicle): 0.3 ng/mL, qPCR
Experimental: as §1

Substance: ucOCN: Non-glycosylated uncarboxylated mouse osteocalcin produced in bacteria (YLGASVPSPDPLEPTREQCELNPACDELSDQYGLKTAYKRIYGITI; ends and bridges not checked; cysteine pairing not given here; UniProt P86546 50-95, looked up)
- serum OCN ([1]; Bglap-/- male mice fasted 16 hr, 15 min, mouse 1): 21.6 ng/mL
- serum OCN ([1]; Bglap-/- male mice fasted 16 hr, 15 min, mouse 2): 16.5 ng/mL
- serum OCN ([1]; Bglap-/- male mice fasted 16 hr, 15 min, mouse 3): 22.3 ng/mL
- serum OCN ([1]; Bglap-/- male mice fasted 16 hr, 15 min, mouse 4): 21.8 ng/mL
- serum OCN ([1]; Bglap-/- male mice fasted 16 hr, 30 min, mouse 1): 29.0 ng/mL
- serum OCN ([1]; Bglap-/- male mice fasted 16 hr, 30 min, mouse 2): 18.8 ng/mL
- serum OCN ([1]; Bglap-/- male mice fasted 16 hr, 30 min, mouse 3): 19.1 ng/mL
- serum OCN ([1]; Bglap-/- male mice fasted 16 hr, 30 min, mouse 4): 16.7 ng/mL
- serum OCN ([1]; Bglap-/- male mice fasted 16 hr, 60 min, mouse 1): 21.9 ng/mL
- serum OCN ([1]; Bglap-/- male mice fasted 16 hr, 60 min, mouse 2): 14.4 ng/mL
- serum OCN ([1]; Bglap-/- male mice fasted 16 hr, 60 min, mouse 3): 15.0 ng/mL
- serum OCN ([1]; Bglap-/- male mice fasted 16 hr, 60 min, mouse 4): 14.8 ng/mL
- serum OCN ([1]; Bglap-/- male mice fasted 16 hr, 90 min, mouse 1): 15.6 ng/mL
- serum OCN ([1]; Bglap-/- male mice fasted 16 hr, 90 min, mouse 2): 12.2 ng/mL
- serum OCN ([1]; Bglap-/- male mice fasted 16 hr, 90 min, mouse 3): 12.9 ng/mL
- serum OCN ([1]; Bglap-/- male mice fasted 16 hr, 90 min, mouse 4): 13.2 ng/mL
- serum OCN ([1]; Bglap-/- male mice fasted 16 hr, 120 min, mouse 1): 11.8 ng/mL
- serum OCN ([1]; Bglap-/- male mice fasted 16 hr, 120 min, mouse 2): 10.3 ng/mL
- serum OCN ([1]; Bglap-/- male mice fasted 16 hr, 120 min, mouse 3): 10.8 ng/mL
- serum OCN ([1]; Bglap-/- male mice fasted 16 hr, 120 min, mouse 4): 12.0 ng/mL
- in vivo half-life ([1]; Bglap-/- male mice fasted 16 hr): 108 min
- in vivo half-life ([1]; Bglap-/- male mice fasted 16 hr, listed as non-glycosylated ucOCN): ~ 108 min
- serum OCN ([1]; fed Bglap-/- male mice, 15 min, mouse 1): 39.8 ng/mL
- serum OCN ([1]; fed Bglap-/- male mice, 15 min, mouse 2): 45.5 ng/mL
- serum OCN ([1]; fed Bglap-/- male mice, 15 min, mouse 3): 45.6 ng/mL
- serum OCN ([1]; fed Bglap-/- male mice, 15 min, mouse 4): 45.1 ng/mL
- serum OCN ([1]; fed Bglap-/- male mice, 15 min, mouse 5): 35.2 ng/mL
- serum OCN ([1]; fed Bglap-/- male mice, 15 min, mouse 6): 29.7 ng/mL
- serum OCN ([1]; fed Bglap-/- male mice, 15 min, mouse 7): 14.2 ng/mL
- serum OCN ([1]; fed Bglap-/- male mice, 15 min, mouse 8): 30.7 ng/mL
- serum OCN ([1]; fed Bglap-/- male mice, 15 min, mouse 9): 21.4 ng/mL
- serum OCN ([1]; fed Bglap-/- male mice, 30 min, mouse 1): 67.5 ng/mL
- serum OCN ([1]; fed Bglap-/- male mice, 30 min, mouse 2): 58.2 ng/mL
- serum OCN ([1]; fed Bglap-/- male mice, 30 min, mouse 3): 51.8 ng/mL
- serum OCN ([1]; fed Bglap-/- male mice, 30 min, mouse 4): 52.9 ng/mL
- serum OCN ([1]; fed Bglap-/- male mice, 30 min, mouse 5): 43.5 ng/mL
- serum OCN ([1]; fed Bglap-/- male mice, 30 min, mouse 6): 27.8 ng/mL
- serum OCN ([1]; fed Bglap-/- male mice, 30 min, mouse 7): 13.8 ng/mL
- serum OCN ([1]; fed Bglap-/- male mice, 30 min, mouse 8): 34.7 ng/mL
- serum OCN ([1]; fed Bglap-/- male mice, 30 min, mouse 9): 14.9 ng/mL
- serum OCN ([1]; fed Bglap-/- male mice, 60 min, mouse 1): 46.1 ng/mL
- serum OCN ([1]; fed Bglap-/- male mice, 60 min, mouse 2): 20.7 ng/mL
- serum OCN ([1]; fed Bglap-/- male mice, 60 min, mouse 3): 25.4 ng/mL
- serum OCN ([1]; fed Bglap-/- male mice, 60 min, mouse 4): 25.6 ng/mL
- serum OCN ([1]; fed Bglap-/- male mice, 60 min, mouse 5): 15.8 ng/mL
- serum OCN ([1]; fed Bglap-/- male mice, 60 min, mouse 6): 8.8 ng/mL
- serum OCN ([1]; fed Bglap-/- male mice, 60 min, mouse 7): 7.2 ng/mL
- serum OCN ([1]; fed Bglap-/- male mice, 60 min, mouse 8): 10.7 ng/mL
- serum OCN ([1]; fed Bglap-/- male mice, 60 min, mouse 9): 5.7 ng/mL
- serum OCN ([1]; fed Bglap-/- male mice, 90 min, mouse 1): 16.3 ng/mL
- serum OCN ([1]; fed Bglap-/- male mice, 90 min, mouse 2): 7.1 ng/mL
- serum OCN ([1]; fed Bglap-/- male mice, 90 min, mouse 3): 9.0 ng/mL
- serum OCN ([1]; fed Bglap-/- male mice, 90 min, mouse 4): 10.0 ng/mL
- serum OCN ([1]; fed Bglap-/- male mice, 90 min, mouse 5): 6.0 ng/mL
- serum OCN ([1]; fed Bglap-/- male mice, 90 min, mouse 6): 4.4 ng/mL
- serum OCN ([1]; fed Bglap-/- male mice, 90 min, mouse 7): 4.7 ng/mL
- serum OCN ([1]; fed Bglap-/- male mice, 90 min, mouse 8): 5.4 ng/mL
- serum OCN ([1]; fed Bglap-/- male mice, 90 min, mouse 9): 4.0 ng/mL
- serum OCN ([1]; fed Bglap-/- male mice, 120 min, mouse 1): 8.1 ng/mL
- serum OCN ([1]; fed Bglap-/- male mice, 120 min, mouse 2): 4.4 ng/mL
- serum OCN ([1]; fed Bglap-/- male mice, 120 min, mouse 3): 5.4 ng/mL
- serum OCN ([1]; fed Bglap-/- male mice, 120 min, mouse 4): 6.0 ng/mL
- serum OCN ([1]; fed Bglap-/- male mice, 120 min, mouse 5): 4.2 ng/mL
- serum OCN ([1]; fed Bglap-/- male mice, 120 min, mouse 6): 3.7 ng/mL
- serum OCN ([1]; fed Bglap-/- male mice, 120 min, mouse 7): 3.8 ng/mL
- serum OCN ([1]; fed Bglap-/- male mice, 120 min, mouse 8): 4.1 ng/mL
- serum OCN ([1]; fed Bglap-/- male mice, 120 min, mouse 9): 3.6 ng/mL
- serum OCN ([1]; fed Bglap-/- male mice, 180 min, mouse 1): 1.9 ng/mL
- serum OCN ([1]; fed Bglap-/- male mice, 180 min, mouse 2): 2.1 ng/mL
- serum OCN ([1]; fed Bglap-/- male mice, 180 min, mouse 3): 1.8 ng/mL
- serum OCN ([1]; fed Bglap-/- male mice, 180 min, mouse 4): 1.6 ng/mL
- serum OCN ([1]; fed Bglap-/- male mice, 180 min, mouse 5): 3.4 ng/mL
- serum OCN ([1]; fed Bglap-/- male mice, 180 min, mouse 6): 3.4 ng/mL
- serum OCN ([1]; fed Bglap-/- male mice, 180 min, mouse 7): 3.4 ng/mL
- serum OCN ([1]; fed Bglap-/- male mice, 180 min, mouse 8): 3.6 ng/mL
- serum OCN ([1]; fed Bglap-/- male mice, 180 min, mouse 9): 3.4 ng/mL
- Serum OCN at 120 minutes ([1]; fed Bglap-/- male mice, dose 40 ng/g i.p., mouse 1): 8.1 ng/mL
- Serum OCN at 120 minutes ([1]; fed Bglap-/- male mice, dose 40 ng/g i.p., mouse 2): 4.4 ng/mL
- Serum OCN at 120 minutes ([1]; fed Bglap-/- male mice, dose 40 ng/g i.p., mouse 3): 5.4 ng/mL
- Serum OCN at 120 minutes ([1]; fed Bglap-/- male mice, dose 40 ng/g i.p., mouse 4): 6 ng/mL
- Serum OCN at 120 minutes ([1]; fed Bglap-/- male mice, dose 80 ng/g i.p., mouse 1): 6.9 ng/mL
- Serum OCN at 120 minutes ([1]; fed Bglap-/- male mice, dose 80 ng/g i.p., mouse 2): 5.7 ng/mL
- Serum OCN at 120 minutes ([1]; fed Bglap-/- male mice, dose 80 ng/g i.p., mouse 3): 13 ng/mL
- % OCN from initial (relative to maximum at 30 min) ([1]; 30 min, mouse 1): 100.0%
- % OCN from initial (relative to maximum at 30 min) ([1]; 30 min, mouse 2): 100.0%
- % OCN from initial (relative to maximum at 30 min) ([1]; 30 min, mouse 3): 100.0%
- % OCN from initial (relative to maximum at 30 min) ([1]; 30 min, mouse 4): 100.0%
- % OCN from initial (relative to maximum at 30 min) ([1]; 60 min, mouse 1): 75.4%
- % OCN from initial (relative to maximum at 30 min) ([1]; 60 min, mouse 2): 76.8%
- % OCN from initial (relative to maximum at 30 min) ([1]; 60 min, mouse 3): 78.6%
- % OCN from initial (relative to maximum at 30 min) ([1]; 60 min, mouse 4): 88.7%
- % OCN from initial (relative to maximum at 30 min) ([1]; 90 min, mouse 1): 53.9%
- % OCN from initial (relative to maximum at 30 min) ([1]; 90 min, mouse 2): 65.1%
- % OCN from initial (relative to maximum at 30 min) ([1]; 90 min, mouse 3): 67.6%
- % OCN from initial (relative to maximum at 30 min) ([1]; 90 min, mouse 4): 78.8%
- % OCN from initial (relative to maximum at 30 min) ([1]; 120 min, mouse 1): 40.6%
- % OCN from initial (relative to maximum at 30 min) ([1]; 120 min, mouse 2): 54.6%
- % OCN from initial (relative to maximum at 30 min) ([1]; 120 min, mouse 3): 56.7%
- % OCN from initial (relative to maximum at 30 min) ([1]; 120 min, mouse 4): 71.4%
- % OCN from initial, mean used for 1/2 life ([1]; time 0 min of declining phase): 100.0%
- % OCN from initial, mean used for 1/2 life ([1]; time 30 min of declining phase): 79.9%
- % OCN from initial, mean used for 1/2 life ([1]; time 60 min of declining phase): 66.3%
- % OCN from initial, mean used for 1/2 life ([1]; time 90 min of declining phase): 55.8%
- OCN in stimulation media ([2]; replicate 1): 0.037 ng/mL
- OCN in stimulation media ([2]; replicate 2): 0.028 ng/mL
- OCN in stimulation media ([2]; replicate 3): 0.03 ng/mL
- Ins1 gene expression (Fold change relative to vehicle) ([3]; replicate 1): 0.663 Fold change
- Ins1 gene expression (Fold change relative to vehicle) ([3]; replicate 2): 1.9 Fold change
- Ins1 gene expression (Fold change relative to vehicle) ([3]; replicate 3): 0.6 Fold change
- Ins1 gene expression (Fold change relative to vehicle) ([3]; replicate 4): 1.4 Fold change
- Ins1 gene expression (Fold change relative to vehicle) ([3]; replicate 5): 0.337 Fold change
- Ins1 gene expression (Fold change relative to vehicle) ([3]; replicate 6): 0.4 Fold change
- Ins1 gene expression (Fold change relative to vehicle) ([3]; replicate 7): 2.7 Fold change
- Ins1 gene expression (Fold change relative to vehicle) ([3]; replicate 8): 3.6 Fold change
- Ins1 gene expression (Fold change relative to vehicle) ([3]; replicate 9): 2.4 Fold change
- Ins1 gene expression (Fold change relative to vehicle) ([3]; replicate 10): 1.3 Fold change
- Ins1 expression increase ([3]; 0.3 ng/ml, quantitative PCR): 1.5 fold
